Data on 38 sequences can be found in the supplement of paper PMC7877785.

The data set can be described thus: self-splicing fitness, log relative to wild type (ln ratio); higher = more splicing; Tetrahymena group I intron in knt gene, E. coli kanamycin selection, DiMSum; sequences stand for … in CUCUCU…GGAGGGAAAAGUUAUCAGGCAUGCACCUGGUAGCUAGUCUUUAAACCAAUAGAUUGCAUCGGUUUAAAAGGCAAGACCGUCAAAUUGCGGGAAAGGGGUCAACAGCCGUUCAGUACCAAGUCUCAGGGGAAACUUUGAGAUGGCCUUGCAAAGGGUAUGGUAAUAAGCUGACGGACAUGGUCCUAACCACGCAGCCAAGUCCUAAGUCAACAGAUCUUCUGUUGAUAUGGAUGCAGUUCACAGACUAAAUGUCGGUCGGGGAAGAUGUAUUCUUCUCAUAAGAUAUAGUCGGACCUCUCCUUAAUGGGAGCUAGCGGAUGAAGUGAUGCAACACUGGAGCCGCUGGGAACUAAUUUGUAUGCGAAAGUAUAUUGAUUAGUUUUGGAGUACUCGUGGUCG
Put shortly:
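A randomised library covering all eight P1ex-region intron nucleotides was built with the intron in the knt kanamycin-resistance gene on pET-22b(+) and held in E. coli BL21(DE3). Cells were grown overnight at 37°C or 30°C on LB agar, with or without 25 μg/mL kanamycin, plus 100 μg/mL carbenicillin, 50 μM IPTG and 0.2% rhamnose, and pooled colonies were amplicon-sequenced on an Illumina HiSeq 2500. DiMSum fitness is the error-weighted combination of wild-type-normalised replicate fold changes, kanamycin versus none.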

± gives the uncertainty stated by the source.

Turning to UGUAAGCAAUAUUACGACCA, the “self-splicing fitness (ln)” value is, setting by setting: (30 °C) 0.386 ± 0.12; (37 °C) 0.0758 ± 0.19.
The like results for GAUAAGCAAUAUUACGCACG were, in that order, -1.16 ± 0.13 and -0.4 ± 0.17.
The matching figures for ACGCAGCAAUAUUACGAGUU: -3.67 ± 0.13 and -1.6 ± 0.11.
The matching figures for CAGCAGCAAUAUUACGCUGC: -3.06 ± 0.22 and -2.36 ± 0.2.
Turning to AACUAGCAAUAUUACGGUGC, the “self-splicing fitness (ln)” value reads like this: (30 °C) -2.46 ± 0.16; (37 °C) -1.77 ± 0.15.
The like results for GAUUAGCAAUAUUACGGUCU were, in that order, -3.15 ± 0.32 and -2.07 ± 0.18.
With UCUGAGCAAUAUUACGCUGA, the “self-splicing fitness (ln)” value is -1.89 ± 0.17 (30 °C) and -0.151 ± 0.15 (37 °C).
The like results for CGCCAGCAAUAUUACGUGCC were, in that order, -1.13 ± 0.091 and -0.673 ± 0.11.
For the sequence ACUAAGCAAUAUUACGCCUC, the “self-splicing fitness (ln)” value was -2.41 ± 0.21 (30 °C) and -1.64 ± 0.34 (37 °C).
As for UGGAAGCAAUAUUACGCAAG, the “self-splicing fitness (ln)” value (37 °C) was -1.83 ± 0.37.
For the sequence CUUGAGCAAUAUUACGGCUU, the “self-splicing fitness (ln)” value reads like this: (30 °C) -3.95 ± 0.22; (37 °C) -2.41 ± 0.24.
The matching figures for CGAGAGCAAUAUUACGCGGU: -3.23 ± 0.23 and -2.4 ± 0.24.
The like results for AUUAAGCAAUAUUACGGUGU were, in that order, -2.11 ± 0.088 and -0.653 ± 0.11.
The like results for UAAAAGCAAUAUUACGCCUG were, in that order, -0.364 ± 0.088 and 0.229 ± 0.12.
Regarding GUCCAGCAAUAUUACGAAAU, the “self-splicing fitness (ln)” value was -0.587 ± 0.1 (30 °C) and -0.0182 ± 0.12 (37 °C).
The matching figures for UUCCAGCAAUAUUACGUUCA: -0.829 ± 0.13 and 0.389 ± 0.12.
The matching figures for GCGCAGCAAUAUUACGAUCU: -0.609 ± 0.055 and -0.141 ± 0.067.
With AUCAAGCAAUAUUACGAGGC, the “self-splicing fitness (ln)” value (30 °C) is -3.86 ± 0.21 and the “self-splicing fitness (ln)” value (37 °C) is -2.57 ± 0.2.
AUCUAGCAAUAUUACGUUGG: the “self-splicing fitness (ln)” value (30 °C) was -3.4 ± 0.19 and the “self-splicing fitness (ln)” value (37 °C) was -1.88 ± 0.19.
Turning to GCUCAGCAAUAUUACGGAGC, the “self-splicing fitness (ln)” value (37 °C) is -1.82 ± 0.44.
With CGCAAGCAAUAUUACGCAGG, the “self-splicing fitness (ln)” value (30 °C) was -2.74 ± 0.12 and the “self-splicing fitness (ln)” value (37 °C) is -1.01 ± 0.12.
The matching figures for GUUGAGCAAUAUUACGAUCC: -0.364 ± 0.16 and 0.0175 ± 0.28.
Turning to UCACAGCAAUAUUACGGAAA, the “self-splicing fitness (ln)” value by setting is: (30 °C) -3.16 ± 0.24; (37 °C) -1.85 ± 0.18.
The matching figures for ACUUAGCAAUAUUACGUUGU: -2.9 ± 0.15 and -2.12 ± 0.15.
The matching figures for AGGAAGCAAUAUUACGCUGG: -3.46 ± 0.38 and -1.08 ± 0.27.
The matching figures for GCGAAGCAAUAUUACGUACA: -1.9 ± 0.19 and -1.29 ± 0.14.
With ACGUAGCAAUAUUACGCUUG, the “self-splicing fitness (ln)” value runs as follows: (30 °C) -1.26 ± 0.083; (37 °C) -1.28 ± 0.093.
For UGAUAGCAAUAUUACGUAUU, the “self-splicing fitness (ln)” value runs as follows: (30 °C) -3.26 ± 0.25; (37 °C) -2.34 ± 0.29.
The like results for GUCCAGCAAUAUUACGCGAA were, in that order, -1.21 ± 0.11 and 0.483 ± 0.11.
The like results for UACCAGCAAUAUUACGGCCG were, in that order, 0.00307 ± 0.099 and -0.366 ± 0.12.
The like results for GAGAAGCAAUAUUACGCGGG were, in that order, -2.86 ± 0.14 and -1.88 ± 0.14.
As to CAGAAGCAAUAUUACGUGGC, the “self-splicing fitness (ln)” value is -3.7 ± 0.16 (30 °C) and -2.15 ± 0.15 (37 °C).
The matching figures for UCCAAGCAAUAUUACGGGUA: -0.53 ± 0.062 and 0.199 ± 0.066.
The matching figures for UAAAAGCAAUAUUACGAUCC: -2.13 ± 0.34 and -2.05 ± 0.27.
The matching figures for AAAAAGCAAUAUUACGGGCC: -1.8 ± 0.28 and -1.17 ± 0.22.
As for UUCGAGCAAUAUUACGCGGA, the “self-splicing fitness (ln)” value by setting is: (30 °C) -2.94 ± 0.25; (37 °C) -3.71 ± 0.39.
The matching figures for AGUCAGCAAUAUUACGAGCG: -0.195 ± 0.09 and -0.556 ± 0.1.
The like results for UCCAAGCAAUAUUACGGGAU were, in that order, -3.88 ± 0.22 and -2.52 ± 0.16.
